# Measurements: PMC8177701 (Science Advances, 2021)
# B1: RimP (natural protein)
# chain: not shown
# Molecular target: T1, RsmA (E. coli, UniProt P06992 1-273)
# T1 sequence (looked up): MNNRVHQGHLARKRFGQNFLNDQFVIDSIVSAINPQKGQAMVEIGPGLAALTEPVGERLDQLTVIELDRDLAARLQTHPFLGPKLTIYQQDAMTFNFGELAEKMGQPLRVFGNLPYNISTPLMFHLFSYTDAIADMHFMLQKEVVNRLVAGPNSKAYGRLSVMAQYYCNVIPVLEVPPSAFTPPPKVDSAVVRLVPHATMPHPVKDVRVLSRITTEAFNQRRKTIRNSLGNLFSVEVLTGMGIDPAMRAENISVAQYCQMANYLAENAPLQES
# Experiment: NMR titration
binder,measurement,value
B1,Ka,< 10000 M⁻¹
